Here are results for 12 molecules from patent US9567399 (dated 2017).

In one assay the target is cyno PD-L1 FLAG (cynomolgus). Nature of the assay: SPR, 37C.
Assay [1] deals with human PD-L1 His (human). As to the kind of experiment: SPR, 37C. On the technique in general: Surface plasmon resonance follows binding to a sensor surface in real time, without labels.
Assay [2] deals with human PD-L1 His (human). As to the kind of experiment: ELISA, competition with PD-1.
The target of assay [3] is human PD-L1 His (human). As to the kind of experiment: SPR, 25C.
The target of assay [4] is human PD-L1 His (human). As to the kind of experiment: SPR.
Assay [5] has as its target human PD-L1 His (human). As to the kind of experiment: SPR, 25C. This is another data set of the same source.
The target of assay [6] is human PD-L1 His (human). Nature of the assay: ELISA, competition with PD-1. This is another data set of the same source. (In general: In an ELISA, binding on a coated surface is turned into a signal by an enzyme label.)
Assay [7] addresses human PD-L1 His (human). Nature of the assay: ELISA, competition with CD80.
Another assay addresses T1, TIGIT (human, UniProt Q495A1).
T1 chain: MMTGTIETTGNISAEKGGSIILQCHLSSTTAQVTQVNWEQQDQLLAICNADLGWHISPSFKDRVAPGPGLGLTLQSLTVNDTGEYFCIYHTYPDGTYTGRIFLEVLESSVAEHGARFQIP
Nature of the assay: SPR.

Positions count from the first letter of the chain named.

Chain of cyno PD-L1 FLAG (cynomolgus) (chain, as listed by the source): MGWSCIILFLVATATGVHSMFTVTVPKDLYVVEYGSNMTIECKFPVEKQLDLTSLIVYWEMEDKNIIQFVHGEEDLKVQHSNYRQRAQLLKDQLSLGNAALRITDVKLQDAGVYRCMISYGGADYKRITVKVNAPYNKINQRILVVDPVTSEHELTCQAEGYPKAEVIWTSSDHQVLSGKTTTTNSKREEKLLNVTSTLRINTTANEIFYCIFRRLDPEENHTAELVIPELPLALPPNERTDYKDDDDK

B1: 84G09 (antibody, V domains shown)
VH: EVQLVESGGGLVQPGRSLRLSCAASGFTFDDYAMHWVRQTPGKGLEWVSGISWKSNIIGYADSVKGRFTISRDNAKNSLYLQMNSLRAEDTALYYCARDITGSGSYGWFDPWGQGTLVTVSS
VL: DIQMTQSPSSLSASVGDRVTITCRASQSISSYLNWYQQKPGKAPKPLIYVASSLQSGVPSSFSGSGSGTDFTLTISSLQPEDFATYYCQQSYSNPITFGQGTRLEIK
For B1, the Kd with cyno PD-L1 FLAG came out at 0.52 nM; in the assay with human PD-L1 His [1] it was 0.43 nM. The molecule further gave an IC50 in the assay with human PD-L1 His [2] of 7.9 nM.

B2: 1D05 VH V to A (antibody, V domains shown)
VH: EVQLVESGGGLVQPGRSLRLSCAASGFTFDDYAMHWVRQAPGKGLEWVSGISWIRTGIGYADSVKGRFTIFRDNAKNSLYLQMNSLRAEDTALYYCAKDMKGSGTYGGWFDTWGQGTLVTVSS
VL: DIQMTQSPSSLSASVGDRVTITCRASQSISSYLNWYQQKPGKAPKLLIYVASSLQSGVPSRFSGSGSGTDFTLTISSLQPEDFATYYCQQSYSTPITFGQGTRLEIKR
In the assay with human PD-L1 His [3], B2 showed a Kd of 0.33 nM.

B3: Bispecific 2, PD-L1 arm (antibody)
chain 1: B2 VH with A40V
chain 2: not shown
In the assay with human PD-L1 His [4], B3 had a Kd of 0.21 nM.

B4: 1D05 IC45 (D5-9) (antibody)
chain 1: B2 VH with A40V
chain 2: not shown
The molecule B4 yielded a Kd with human PD-L1 His [5] of 0.203 nM.

B5: 1D05 VH V to A and F to S (antibody, V domains shown)
VH: B2 VH with F71S
VL: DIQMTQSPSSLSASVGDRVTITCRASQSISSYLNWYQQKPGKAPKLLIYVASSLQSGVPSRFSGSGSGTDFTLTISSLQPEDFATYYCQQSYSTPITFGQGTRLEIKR
Regarding B5, in the assay with human PD-L1 His [3], the Kd stood at 0.23 nM.

B6: 1D05 VH V to A, VL V to A (antibody, V domains shown)
VH: B2 VH
VL: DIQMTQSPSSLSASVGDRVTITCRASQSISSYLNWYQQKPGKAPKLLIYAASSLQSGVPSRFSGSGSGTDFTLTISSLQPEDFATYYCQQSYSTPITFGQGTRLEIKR
In the assay with human PD-L1 His [3], B6 yielded a Kd of 2.8 nM.

B7: 1D05 IC46 (D1-9) (antibody)
chain 1: B2 VH with A40V
chain 2: not shown
As to B7, the Kd in the assay with human PD-L1 His [5] worked out at 0.195 nM. Besides, the IC50 stood at 1.75 nM with human PD-L1 His [6] and 1.07 nM with human PD-L1 His [7].

B8: 1D05 VH F to S (antibody, V domains shown)
VH: B2 VH with A40V, F71S
VL: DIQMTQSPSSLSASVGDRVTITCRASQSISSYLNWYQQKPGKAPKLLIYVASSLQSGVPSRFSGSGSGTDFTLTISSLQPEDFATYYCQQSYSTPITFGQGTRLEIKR
In the case of B8, binding in the assay with human PD-L1 His [3] was characterised by a dissociation constant (Kd) of 0.23 nM.

B9: 1D05 D9-7 (antibody)
chain 1: B2 VH with A40V
chain 2: not shown
In turn, B9 gave a Kd with human PD-L1 His [5] of 0.2 nM. The molecule further gave an IC50 in the assay with human PD-L1 His [7] of 0.7 nM.

B10: Bispecific 1, PD-L1 arm (antibody)
chain 1: B2 VH with A40V
chain 2: not shown
For the molecule B10, the Kd with human PD-L1 His [4] is 0.27 nM. That is a sub-nanomolar value.

B11: 1D05 (antibody)
chain 1: B2 VH with A40V
chain 2: not shown
In the case of B11, the binding result with TIGIT is given as “no binding”. Besides, the Kd with human PD-L1 His [4] stood at 0.35 nM; with cyno PD-L1 FLAG it was 0.43 nM; with human PD-L1 His [1] it was 0.42 nM.

B12: 1D05 IC64 (D5-7) (antibody)
chain 1: B2 VH with A40V
chain 2: not shown
The molecule B12 registered a dissociation constant Kd with human PD-L1 His [5] of 0.214 nM.

As a reminder, the Kd is a measure of binding affinity in units of concentration. A low value points to a tighter complex. What is called IC50 is the concentration that inhibits the measured activity by half.
